Key:
[1] = target: T1, EGFRvIII (deletion mutant EGFR) (human, UniProt P00533 25-645, limits assumed); assay: EGFRvIII ELISA (Example 1)
T1 construct: also called deltaEGFR; rhEGFRvIII

[2] = target: T2, recombinant human EGFR extracellular domain with 6xHis (human, UniProt P00533 25-645); assay: SPR competition, competitor Ab-1
T2 construct: In-house produced; also called 6xHis EGFR ECD; soluble human EGFR ECD; not shown: 6xHis tag
Method: (§1) SPR analysis was performed on a Biacore 3000 machine containing four flow cells. A CM5 Biacore chip was conjugated with 10,000 Resonance units (Ru) polyclonal anti-His antibody to flow cells 1-4 according to the manufacturer's instructions. […] Immediately after antigen injection the maximal binding of the Anti-EGFR mAb without competition was established in each flow cell during a reference run. Briefly 5 μl antibody at a concentration of 40 μg/ml was injected over all flow cells with captured EGFR followed by stripping of the antibody/antigen complex with a low pH acid wash (10 sec. contact time with 10 mM Glycine-HCl, pH2). After the determination of Anti-EGFR antibody maximal binding to each flow cell, a competition run was performed during the same Biacore cycle. Flow cells were first saturated with EGFR ECD antigen followed by injection of different reference antibodies or Anti-EGFR antibodies into separate flow cells using the same antigen saturating conditions as outlined above. This step was immediately followed by a second injection of Anti-EGFR antibody over the flow cell saturated with EGFR antigen and competition antibody to minimize the dissociation of either antigen or blocking antibody. Then the antibody/antigen complexes were stripped off with a low pH acid wash (10 sec. contact time with 10 mM Glycine-HCl, pH 2) and the whole cycle beginning with the reference run was repeated with a new Anti-EGFR antibody. The degree of inhibition of tested Anti-EGFR antibodies were determined by comparing the Ru max value of the individual Anti-EGFR antibody before and after competition by introduction of report points recorded two seconds before and after injection of each sample.

[3] = target: T2, recombinant human EGFR extracellular …; assay: SPR competition, competitor Ab-3
Method: as §1

[4] = target: T2, recombinant human EGFR extracellular …; assay: SPR competition, competitor Ab-5
Method: as §1

[5] = target: T2, recombinant human EGFR extracellular …; assay: SPR competition, competitor 1024
Method: as §1

[6] = target: T2, recombinant human EGFR extracellular …; assay: SPR competition, competitor 1208
Method: as §1

[7] = target: T2, recombinant human EGFR extracellular …; assay: SPR competition, competitor 1254
Method: as §1

[8] = target: T2, recombinant human EGFR extracellular …; assay: SPR competition, competitor 1257
Method: as §1

[9] = target: T2, recombinant human EGFR extracellular …; assay: SPR competition, competitor 1260
Method: as §1

[10] = target: T2, recombinant human EGFR extracellular …; assay: SPR competition, competitor 1261
Method: as §1

[11] = target: T2, recombinant human EGFR extracellular …; assay: SPR competition, competitor 1277
Method: as §1

[12] = target: T2, recombinant human EGFR extracellular …; assay: SPR competition, competitor 1284
Method: as §1

[13] = target: T2, recombinant human EGFR extracellular …; assay: SPR competition, competitor 1320
Method: as §1

[14] = target: T2, recombinant human EGFR extracellular …; assay: SPR competition, competitor 1344
Method: as §1

[15] = target: T2, recombinant human EGFR extracellular …; assay: SPR competition, competitor 1347
Method: as §1

[16] = target: T2, recombinant human EGFR extracellular …; assay: SPR competition, competitor Ab-10
Method: as §1

[17] = target: T2, recombinant human EGFR extracellular …; assay: SPR competition, competitor Ab-11
Method: as §1

[18] = target: T2, recombinant human EGFR extracellular …; assay: SPR competition, competitor ICR10
Method: as §1

[19] = target: T2, recombinant human EGFR extracellular …; assay: SPR competition, competitor Erbitux
Method: as §1

[20] = target: T2, recombinant human EGFR extracellular …; assay: SPR competition, competitor Erbitux; remark: listed apart in the source
Method: as §1

[21] = target: T2, recombinant human EGFR extracellular …; assay: SPR competition, competitor Vectibix
Method: as §1

[22] = target: T2, recombinant human EGFR extracellular …; assay: SPR competition, competitor 1030corr
Method: as §1

[23] = target: T2, recombinant human EGFR extracellular …; assay: SPR competition, competitor 992 corr
Method: as §1

[24] = target: T2, recombinant human EGFR extracellular …; assay: SPR competition, competitor Vectibix; remark: listed apart in the source
Method: as §1

| binding result [1] | % inhibition [2] [%] | % inhibition [3] [%] | % inhibition [4] [%] | % inhibition [5] [%] | % inhibition [6] [%] | % inhibition [7] [%] | % inhibition [8] [%] | % inhibition [9] [%] | % inhibition [10] [%] | % inhibition [11] [%] | % inhibition [12] [%] | % inhibition [13] [%] | % inhibition [14] [%] | % inhibition [15] [%] | % inhibition [16] [%] | % inhibition [17] [%] | % inhibition [18] [%] | % inhibition [19] [%] | % inhibition [20] [%] | Binder | other results |
| --- | --- | --- | --- | --- | --- | --- | --- | --- | --- | --- | --- | --- | --- | --- | --- | --- | --- | --- | --- | --- | --- |
| no binding | -9 | 9 | -13 | 0 | -2 | -3 | 0 | 79 | 4 | -3 | 98 | -1 | 73 | 62 | -8 | -15 | 86 | -7 | -2 | antibody 1284 (antibody, human IgG1, kappa, V domains shown, Chimeric IgG1 kappa) VH: QVQLQQPGAELVKPGASVKLSCKASGYTFTSDWMHWMKQRPGQGLEWIGEINPSNGRSSYNEKFKSKATLTVDKSSSTAYMQLSSLTSEDSAVYYCARIGGIYVETYWGQGTLVTVSS VL: DIVLTQSPASLAVSLGQRATISCRASQSVSTSTYSYMHWYQQKSGQPPKLLIKYASNLESGVPARFSGSGSGTDFTLNIHPVEEEDTATYYCQHSWEIPWTFGGGTKLEIKR | % inhibition [21]: -13%; % inhibition [22]: -5%; % inhibition [23]: 6%; % inhibition [24]: -2% |
| no binding | -2 | 25 | -3 | 3 | 3 | 10 | 83 | 87 | 71 | 10 | 81 | 8 | 83 | 15 | 0 | 86 | 87 | -4 | -4 | antibody 1344 (antibody, human IgG1, kappa, V domains shown, Chimeric IgG1 kappa) VH: QVQLKESGPGLVAPSQSLSITCTVSGFSLTIYGVHWVRQPPGKGLEWLGVIWAGGNTNYNSALMSRLSISKDNSKSQVFLKMNSLQTDDTAMYFCARGYGYNLDYWGQGTTLTVSS VL: DIQMTQTTSSLSASLGDRVTISCSASQGISNYLNWYQQKPDGTVKLLIYYTSSLHSGVPSRFSGSGSGTDYSLTISNLEPEDIATYYCQQYSKLPYTFGGGTKLEIKR | % inhibition [21]: -5%; % inhibition [22]: 31%; % inhibition [23]: 9%; % inhibition [24]: 8% |
| no binding | 7 | 64 | 1 | 33 | 33 | 22 | 55 | 88 | 97 | 25 | 67 | 26 | 83 | 46 | 12 | 99 | 91 | 8 | 8 | antibody 1260 (antibody, human IgG1, kappa, V domains shown, Chimeric IgG1 kappa) VH: QVQLKESGPGLVAPSQSLSITCTVSGFSLTTYGVHWVRQPPGKGLEWLGVIWAGGSTNYNSALMSRLSIKKDNSKSQVFLKMNSLQTDDTAMYYCARAYGYNFDYWGQGTTLTVSS VL: DIQMTQTTSSLSASLGDRVTISCSASQGITNYLNWYQQKPDGTVKLLIYYSSSLHSGVPSRFSGSGSGTDYSLTISNLEPEDIATYYCQQYSEIPYTFGGGTKLELKR | % inhibition [21]: 10%; % inhibition [22]: 18%; % inhibition [23]: -10%; % inhibition [24]: 31% |
| no binding | -4 | 54 | -3 | -24 | -24 | -12 | 58 | 75 | 95 | -19 | -8 | -18 | 65 | 4 | -6 | 94 | 24 | -2 | -2 | antibody 1261 (antibody, human IgG1, kappa, V domains shown, Chimeric IgG1 kappa) VH: EVQLVESGGGLVKPGGSLKLSCAVSGFTFSSYVMSWVRQTPEKRLEWVATITSGGRNIYYLDSVKGRFTISRDNAKNTLYLQMSSLRSEDTAMYYCARHEDYRYDGYYAMDYWGQGTSVTVSS VL: QIVLTQSPAIMSASPGEKVTITCSASSSVSYMHWFQQKPGTSPKLWIYSTSNLASGVPARFSGSGSGTSYSLTISRMEAEDAATYYCQQRSSYPYTFGGGTKLELKR | % inhibition [21]: -5%; % inhibition [22]: -6%; % inhibition [23]: 14%; % inhibition [24]: -21% |
| no binding | -1 | 85 | -5 | 17 | 17 | 8 | 90 | 68 | 103 | 11 | 16 | 15 | 80 | 21 | 1 | 100 | 22 | 0 | 0 | antibody 1257 (antibody, human IgG1, kappa, V domains shown, Chimeric IgG1 kappa) VH: EVQLQQSGPELVKPGASVKIPCKTSGYTFTDYNMAWVKQSHGKSLEWIGDIIPNNGGAIYNQKFKGKATLTVDKSSSTASMELRSLTSEDTAVYFCARKNIYYRYDGAGALDYWGQGTSVTVSS VL: QIVLTQSPAIMSASPGEKVTMTCSASSSVSYIYWYQQKPGSSPRLLIYDASNLASGVPVRFSGSGSGTSYSLTISRMEAEDAATYYCQQWSSYPITFGSGTKLEIKR | % inhibition [21]: -2%; % inhibition [22]: 4%; % inhibition [23]: 16%; % inhibition [24]: 15% |

From US20110135636A1 (SYMPHOGEN A S, published 2011)
